Experimental data reported in paper doi:10.1101/2023.08.24.554544.
pKd: −log10 of the molar value.

Molecular target: GST-tagged A. thaliana Rpn10 (AtRpn10) vWA domain (Arabidopsis thaliana) (UniProt P55034)
Experiment: SPR

Sequence of GST-tagged A. thaliana Rpn10 (AtRpn10) vWA domain (Arabidopsis thaliana) (P55034 2-193): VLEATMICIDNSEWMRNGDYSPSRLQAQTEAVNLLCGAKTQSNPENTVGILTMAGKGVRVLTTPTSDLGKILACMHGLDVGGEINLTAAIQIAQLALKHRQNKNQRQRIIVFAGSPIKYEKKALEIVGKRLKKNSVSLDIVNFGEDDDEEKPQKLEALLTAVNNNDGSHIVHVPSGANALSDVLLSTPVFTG

## V-shape-GSGS-C-ter peptide (fused V-shape and C-ter peptide of SAP05, linked by the GSGS linker)
  pKd: 4.46
